Data taken from patent US20210040174A1.

What was measured:
[1] = biological target: his-tagged C-terminal fragment from CA125 (UniProt Q8WXI7); assay: SPR (BiaCore T200): fusion protein captured on Protein A chip, his-tagged C-terminal CA125 fragment as analyte; one MCB domain (MCB domain-1X, SEQ ID: 4)
[2] = biological target: his-tagged C-terminal fragment from CA125 (UniProt Q8WXI7); assay: SPR (BiaCore T200): fusion protein captured on Protein A chip, his-tagged C-terminal CA125 fragment as analyte; two MCB domains (MCB domain-2X, SEQ ID: 2)

Kd [1] [pM]	Kd [2] [pM]	Substance
65.2	–	MCB domain-1X fusion protein (single MCB domain of mesothelin linked to the N-terminus of the human IgG1 Fc heavy chain) (Fc fusion)
–	14.9	MCB domain-2X fusion protein (two MCB domains of mesothelin linked via a single spacer unit to the N-terminus of the human IgG1 Fc heavy chain) (Fc fusion)
